According to US20240141046A1 (published 2024):
Like-named read-outs stand apart in the source and are kept apart here.

T1: recombinant human CTLA4-Fc (Sino Biological, 11159-H03H) (human, UniProt P16410 36-162)
T1 construct: bought; also called human CTLA4 fused with human FC fragment
T1 sequence (looked up): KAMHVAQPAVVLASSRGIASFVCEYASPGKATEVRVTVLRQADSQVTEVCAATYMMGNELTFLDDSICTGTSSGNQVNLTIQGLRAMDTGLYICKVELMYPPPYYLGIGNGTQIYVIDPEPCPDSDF


Assays:
[1] = molecular target: T1, recombinant human CTLA4-Fc (Sino …); assay: ELISA, CTLA4-Fc coated, batch 1
Method: (§1) Plates were blocked with PBS supplemented with 3% non-fat milk at 37° C. for 1 hour. After washing, 100 μL, of 3-fold serial dilutions of antibodies were added to each well. After incubation at 37° C. for 1 hour, plates were washed four times, and 100 μL HRP conjugated anti-human IgG (Fab specific) (1:6000 dilution) was added to each well. Plates were incubated at 37° C. for 1 hour, washed four times, and then 50 μL TMB substrate solution was added to each well, and the plate was incubated at room temperature. […] The EC50 was evaluated by fitting the ELISA data using the asymmetrical sigmoidal (five-parameter logistic equation) model of GraphPad Prism 6 software.

[2] = molecular target: T1, recombinant human CTLA4-Fc (Sino …); assay: ELISA, CTLA4-Fc coated, batch 2
Method: as §1

[3] = molecular target: T1, recombinant human CTLA4-Fc (Sino …); assay: ELISA; EC50 over EC50 of TY21580
Method: as §1

[4] = molecular target: T1, recombinant human CTLA4-Fc (Sino …); assay: ELISA; EC50 over EC50 of TY21580; remark: listed apart in the source
Method: Plates were incubated at 37° C. for 1 hour, washed four times, and then 50 μL TMB substrate solution was added to each well, and the plate was incubated at room temperature. […] The EC50 was evaluated by fitting the ELISA data using the asymmetrical sigmoidal (five-parameter logistic equation) model of GraphPad Prism 6 software.
The purified activatable antibodies were treated with the proteases which recognize the cleavage sequences, and were then tested to determine whether removal of the masking peptide restored their activity. […] The masking efficiency was then measured by ELISA as described above.

[5] = molecular target: T1, recombinant human CTLA4-Fc (Sino …); assay: ELISA; EC50 over EC50 of TY21580; remark: listed apart in the source
Method: as §1

[6] = molecular target: T1, recombinant human CTLA4-Fc (Sino …); assay: ELISA; EC50 over EC50 of TY21580; remark: listed apart in the source
Method: as §1

[7] = molecular target: mouse CTLA4 fused with human FC fragment (mouse, UniProt P09793 36-162, limits assumed); assay: ELISA, Fab captured
[8] = molecular target: T1, recombinant human CTLA4-Fc (Sino …); assay: ELISA, Fab captured

Binder	LogEC50 [2]	Masking efficiency [3] [fold]	also measured
TY22401 (antibody, V domains shown, peptide fused to the N-terminus of the light chain; also called B13189 (peptide name)) VH: EVQLVESGGGLVQPGGSLRLSCAASGYSISSGYHWSWIRQAPGKGLEWLARIDWDDDKYYSTSLKSRLTISRDNSKNTLYLQLNSLRAEDTAVYYCARSYVYFDYWGQGTLVTVSS VL: EVGSYNFVADSCPDHPYPCSASGRSAGGGGSPLGLAGSGGSDIQLTQSPSSLSASVGDRVTITCRASQSVRGRFLAWYQQKPGKAPKLLIYDASNRATGIPSRFSGSGSGTDFTLTISSLQPEDFATYYCQQSSSWPPTFGQGTKVEIKR	-7.8	–	LogEC50 [1]: -7.62
TY22775 (antibody, V domains shown) VH: EVQLVESGGGLVQPGGSLRLSCAASGYSISSGYHWSWIRQAPGKGLEWLARIDWDDDKYYSTSLKSRLTISRDNSKNTLYLQLNSLRAEDTAVYYCARSYVYFDYWGQGTLVTVSS VL: EVGHSDCDAFYPYCDSSGRSAGGGGTPLGLAGSGGSDIQLTQSPSSLSASVGDRVTITCRASQSVRGRFLAWYQQKPGKAPKLLIYDASNRATGIPSRFSGSGSGTDFTLTISSLQPEDFATYYCQQSSSWPPTFGQGTKVEIKR	–	168	–
TY22563 (antibody, IgG1, V domains shown) VH: EVQLVESGGGLVQPGGSLRLSCAASGYSISSGYHWSWIRQAPGKGLEWLARIDWDDDKYYSTSLKSRLTISRDNSKNTLYLQLNSLRAEDTAVYYCARSYVYFDYWGQGTLVTVSS VL: EVGSYYSAYPACDSHYPYCQSSGRSAGGGGSPLGLAGSGGSDIQLTQSPSSLSASVGDRVTITCRASQSVRGRFLAWYQQKPGKAPKLLIYDASNRATGIPSRFSGSGSGTDFTLTISSLQPEDFATYYCQQSSSWPPTFGQGTKVEIKR	-7.32	144	–
TY22404 (antibody, IgG1, V domains shown, also called B13197 (peptide name)) VH: EVQLVESGGGLVQPGGSLRLSCAASGYSISSGYHWSWIRQAPGKGLEWLARIDWDDDKYYSTSLKSRLTISRDNSKNTLYLQLNSLRAEDTAVYYCARSYVYFDYWGQGTLVTVSS VL: EVGSYPNPSSDCVPYYYACAYSGRSAGGGGSPLGLAGSGGSDIQLTQSPSSLSASVGDRVTITCRASQSVRGRFLAWYQQKPGKAPKLLIYDASNRATGIPSRFSGSGSGTDFTLTISSLQPEDFATYYCQQSSSWPPTFGQGTKVEIKR	-6.89	308	LogEC50 [1]: -6.75; Masking efficiency [4]: 216 fold; Masking efficiency [5]: 572 fold; Masking efficiency [6]: 469 fold
TY22402 (antibody, IgG1, V domains shown, also called B13180 (peptide name)) VH: EVQLVESGGGLVQPGGSLRLSCAASGYSISSGYHWSWIRQAPGKGLEWLARIDWDDDKYYSTSLKSRLTISRDNSKNTLYLQLNSLRAEDTAVYYCARSYVYFDYWGQGTLVTVSS VL: EVGSYIVHHSDCDAFYPYCDSSGRSAGGGGSPLGLAGSGGSDIQLTQSPSSLSASVGDRVTITCRASQSVRGRFLAWYQQKPGKAPKLLIYDASNRATGIPSRFSGSGSGTDFTLTISSLQPEDFATYYCQQSSSWPPTFGQGTKVEIKR	-6.9	243	LogEC50 [1]: -6.32; Masking efficiency [5]: 554 fold
TY22564 (antibody, IgG1, V domains shown) VH: EVQLVESGGGLVQPGGSLRLSCAASGYSISSGYHWSWIRQAPGKGLEWLARIDWDDDKYYSTSLKSRLTISRDNSKNTLYLQLNSLRAEDTAVYYCARSYVYFDYWGQGTLVTVSS VL: EVGSYYSAYPACDSHYPYCNSAGRSAGGGGSPLGLAGSGGSDIQLTQSPSSLSASVGDRVTITCRASQSVRGRFLAWYQQKPGKAPKLLIYDASNRATGIPSRFSGSGSGTDFTLTISSLQPEDFATYYCQQSSSWPPTFGQGTKVEIKR	-7.41	–	–
B15736 (Fab, V domains shown) VH: EVQLVESGGGLVQPGGSLRLSCAASGFTFSDYAIHWVRQAPGKGLEWIGIISPSGGSTKYAQKFQGRVTISRDNSKNTLYLQLNSLRAEDTAVYYCARLGYGYFDVWGQGTLVTVSS VL: DIQLTQSPSSLSASVGDRVTITCRASQSVDFYGISFLHWYQQKPGKAPKLLIYDASSLESGVPSRFSGSGSGTDFTLTISSLQPEDFATYYCVQALQLPLTFGQGTKVEIKR	–	–	binding result [7]: binds; binding result [8]: binds
B15700 (Fab, V domains shown) VH: EVQLVESGGGLVQPGGSLRLSCAASGFTFSGYAIHWVRQAPGKGLEWIGIISPSGGGTKYAQKFQGRVTISRDNSKNTLYLQLNSLRAEDTAVYYCARHPFAYWGQGTLVTVSS VL: DIQLTQSPSSLSASVGDRVTITCRASQSVDFYGISFLDWYQQKPGKAPKLLIYDASNRATGIPSRFSGSGSGTDFTLTISSLQPEDFATYYCQQYVSSPPEYTFGQGTKVEIKR	–	–	binding result [7]: binds; binding result [8]: binds
B15709 (Fab, V domains shown) VH: EVQLVESGGGLVQPGGSLRLSCAASGFTFSDYAIHWVRQAPGKGLEWIGIISPSSGSTNYAQKFQGRVTISRDNSKNTLYLQLNSLRAEDTAVYYCARDIHSGSSGYYYGFDVWGQGTLVTVSS VL: DIQLTQSPSSLSASVGDRVTITCRASESVDFFGISFLAWYQQKPGKAPKLLIYDASNRATGIPSRFSGSGSGTDFTLTISSLQPEDFATYYCQHYTSSPPVYTFGQGTKVEIKR	–	–	binding result [7]: binds; binding result [8]: binds

Continued, in another order:

LogEC50 [2]	Masking efficiency [3] [fold]	Binder	also measured
-6.68	–	TY22565 (antibody, IgG1, V domains shown) VH: EVQLVESGGGLVQPGGSLRLSCAASGYSISSGYHWSWIRQAPGKGLEWLARIDWDDDKYYSTSLKSRLTISRDNSKNTLYLQLNSLRAEDTAVYYCARSYVYFDYWGQGTLVTVSS VL: EVGSYPQPSSDCVPYYYACAYSGRSAGGGGSPLGLAGSGGSDIQLTQSPSSLSASVGDRVTITCRASQSVRGRFLAWYQQKPGKAPKLLIYDASNRATGIPSRFSGSGSGTDFTLTISSLQPEDFATYYCQQSSSWPPTFGQGTKVEIKR	–
-6.79	489	TY22566 (antibody, IgG1, V domains shown) VH: EVQLVESGGGLVQPGGSLRLSCAASGYSISSGYHWSWIRQAPGKGLEWLARIDWDDDKYYSTSLKSRLTISRDNSKNTLYLQLNSLRAEDTAVYYCARSYVYFDYWGQGTLVTVSS VL: EVGSYPNPASDCVPYYYACAYSGRSAGGGGSPLGLAGSGGSDIQLTQSPSSLSASVGDRVTITCRASQSVRGRFLAWYQQKPGKAPKLLIYDASNRATGIPSRFSGSGSGTDFTLTISSLQPEDFATYYCQQSSSWPPTFGQGTKVEIKR	–
–	296	TY22776 (antibody, V domains shown) VH: EVQLVESGGGLVQPGGSLRLSCAASGYSISSGYHWSWIRQAPGKGLEWLARIDWDDDKYYSTSLKSRLTISRDNSKNTLYLQLNSLRAEDTAVYYCARSYVYFDYWGQGTLVTVSS VL: EVGSSDCVPYYYACAYSGRSAGGGGTPLGLAGSGGSDIQLTQSPSSLSASVGDRVTITCRASQSVRGRFLAWYQQKPGKAPKLLIYDASNRATGIPSRFSGSGSGTDFTLTISSLQPEDFATYYCQQSSSWPPTFGQGTKVEIKR	–
